Results as given in US20020035246, “SMAD-interacting polypeptides and their use” (published 2002).

Target: T1, SIP1CZF (C-terminal zinc finger cluster of SIP1) (Mus musculus, UniProt Q9R0G7 SEQ:728-805)
T1 sequence: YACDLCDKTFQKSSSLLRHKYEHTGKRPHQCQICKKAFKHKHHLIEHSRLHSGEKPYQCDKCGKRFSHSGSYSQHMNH
Assay: EMSA; competed by excess unlabeled self
Conditions: tags: GST fusion, E. coli; label: 32P

B1: Brachyury binding site (dsDNA)
DNA 1: TGACACCTAGGTGTGAATT
DNA 2: AATTCACACCTAGGTGTCA
binding result: binds
